Experimental data taken from article PMC3079584, “A Cytoplasmic Complex Mediates Specific mRNA Recognition and Localization in Yeast”.
Changes are numbered by the printed parent chain.

Tests used:
[1] = target: T1, She3p (Saccharomyces cerevisiae, UniProt P38272 1-425); experiment: EMSA; minimal She3p concentration for detection; EMSA: 20 mM HEPES pH 7.8, 200 mM NaCl, 2 mM MgCl2, 2 mM DTT, 4% glycerol, 30 or 100 ug/ml yeast tRNA, 5 nM RNA, 20 C; filter binding: 20 mM HEPES pH 7.4-7.5 (7.9 with She3p), 150 mM NaCl, 2 mM MgCl2, 2 mM DTT, 30 ug/ml yeast tRNA, 0.5 nM RNA; pull-down: HNMD buffer, 4 C; conditions: protein: recombinant; tags: C-terminal His6; label: 32P; stem-loop
T1 sequence: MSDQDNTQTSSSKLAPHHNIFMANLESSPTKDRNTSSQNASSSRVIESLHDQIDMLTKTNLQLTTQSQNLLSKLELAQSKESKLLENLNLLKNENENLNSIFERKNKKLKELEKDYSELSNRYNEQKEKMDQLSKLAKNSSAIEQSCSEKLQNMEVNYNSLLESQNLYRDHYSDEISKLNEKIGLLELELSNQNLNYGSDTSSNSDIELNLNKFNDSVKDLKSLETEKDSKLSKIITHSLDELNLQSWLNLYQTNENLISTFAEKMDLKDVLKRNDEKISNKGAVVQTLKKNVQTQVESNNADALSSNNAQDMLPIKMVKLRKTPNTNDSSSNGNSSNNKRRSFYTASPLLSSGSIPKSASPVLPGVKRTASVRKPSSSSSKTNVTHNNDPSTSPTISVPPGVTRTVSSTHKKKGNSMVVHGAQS

[2] = target: T2, She3p (334-425) (Saccharomyces cerevisiae, UniProt P38272 334-425); experiment: EMSA; +++; EMSA: 20 mM HEPES pH 7.8, 200 mM NaCl, 2 mM MgCl2, 2 mM DTT, 4% glycerol, 30 or 100 ug/ml yeast tRNA, 5 nM RNA, 20 C; filter binding: 20 mM HEPES pH 7.4-7.5 (7.9 with She3p), 150 mM NaCl, 2 mM MgCl2, 2 mM DTT, 30 ug/ml yeast tRNA, 0.5 nM RNA; pull-down: HNMD buffer, 4 C; conditions: protein: recombinant; tags: MBP and His6 (EMSA); His6 (SEC, cross-linking); label: 32P; stem-loop
T2 sequence: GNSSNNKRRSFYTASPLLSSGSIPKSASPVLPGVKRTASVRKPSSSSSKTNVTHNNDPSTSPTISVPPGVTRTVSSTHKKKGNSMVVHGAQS

[3] = target: T3, She3p (L364A V367A) (Saccharomyces cerevisiae, UniProt P38272 1-425, L364A;V367A); experiment: as above; conditions: protein: recombinant; tags: C-terminal His6; label: 32P; stem-loop
T3 sequence: T1 sequence with L364A, V367A

[4] = target: T4, She3p (S348E) (Saccharomyces cerevisiae, UniProt P38272 1-425, S348E); experiment: as above; conditions: protein: recombinant; tags: C-terminal His6; label: 32P; stem-loop
T4 sequence: T1 sequence with S348E

Measured: binding result

B1: ASH1 E3-118 (structured_RNA)
RNA: GAGACAGUAGAGAAUUGAUACAUGGAUAACUGAAUCUCUUUCAACUAAUAAGAGACAUUAUCACGAAACAAUUGUACAUUUCUCUCCUUGUCUGUGCUAAAUAAACUACAAAUAAAAA
binds: all assays above
